The data set “crystal structure” deals with the molecule itself. Nature of the data set: crystal structure.
Data set [1] concerns the target T1, Cyanothece PCC7424 McdA(D38A) (Cyanothece sp. PCC 7424, UniProt B7KMS4 1-258, D38A).
T1 sequence (looked up): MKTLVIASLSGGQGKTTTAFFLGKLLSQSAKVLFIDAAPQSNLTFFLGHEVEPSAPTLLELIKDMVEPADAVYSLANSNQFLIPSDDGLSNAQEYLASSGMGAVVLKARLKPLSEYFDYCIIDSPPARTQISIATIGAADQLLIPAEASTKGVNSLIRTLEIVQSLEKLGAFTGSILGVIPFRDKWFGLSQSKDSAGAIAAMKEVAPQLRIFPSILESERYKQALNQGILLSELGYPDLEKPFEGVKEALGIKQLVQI
Kind of data set: fluorescence polarisation. (In fluorescence polarisation assays a small probe gives low polarisation when free and higher when bound to something large.)

B1: Cyanothece PCC7424 McdB (wild type) (natural protein, Cyanothece sp. PCC 7424, UniProt B7KMS5 1-156, looked up)
chain: MSNNALDRLINKQKPKVPPRNDVVSESVSNDIKTQGQQELNTSLPPSDTKATPEEMPTSHESETSLSQDQKPKLSPDTFETVRNTIRIESEVDESLRQLCHEERITKETWLEAAYLYLCEKPEELAQVIQLAQERLSQRKAIADYKRAKTMQERFL
In the case of B1, in the data set “crystal structure”, the stoichiometry N (usually the number of molecules, sites or subunits per partner or assembly) was found to be 2. Besides, the Kd (usually a measure of binding affinity in units of concentration) in data set [1] was 1100 nM.
